Reference: US20180100009A1 (VHSQUARED, published 2018)

Key:
[1] = target: T1, TcdA from C. difficile ribotype 087 (Clostridium difficile ribotype 087 …, UniProt P16154 1-2710); experiment: sandwich ELISA
T1 construct: also called 087 TcdA; TcdA 10463 (087)

[2] = target: T2, TcdA from C. difficile ribotype 027 (Clostridium difficile ribotype 027 …, UniProt P16154 1-2710); experiment: sandwich ELISA
T2 construct: also called 027 TcdA; TcdA R20291 (027)

[3] = target: T3, TcdB from C. difficile ribotype 087 (Clostridium difficile ribotype 087, UniProt P18177 2-2366); experiment: ELISA: TcdB coat, quadrahead, detected with rabbit polyclonal anti-ICVD
T3 construct: also called 087 TcdB

[4] = target: T2, TcdA from C. difficile ribotype 027; experiment: sandwich ELISA: TcdB coat, quadrahead, TcdA 0-20 ng/ml, rabbit anti-TcdA pAb

Measured: binding result

B1: ID-3C (bispecific antibody)
chain: DVQLQESGGGLVQAGDSLRLSCAASGATLSSYTIGWFRQAPEKEREFVAGSSRDGRTNYYANSVKGRFTISRDNAKNTVYLQMNSLKPEDTAVYYCAAHTTSGVPVRERSYAYWGQGTQVTVSSGGGGSGGGGSGGGGSGGGGSDVQLQESGGGLVQAGGSLRLSCAASGATSDVYAIGWFRQVPGKEREFVATINRSGSDSYYADSVKGRFTISRDNAKNTVYLQMNSLKPEETAVYYCAASRSDCIGYGCRRVSQDYWGQGTQVTVSSGGGGSGGGGSGGGGSGGGGSDVQLQESGGGLVQAGGSLRLSCVISGMDFSHKPAGWFRQAPGKEREFVASITTRASTHYADSVKGRFTISRDNAKNTVYLEMNSLKPEDTAVYYCNSEYYWGQGTQVTVSSGGGGSGGGGSGGGGSGGGGSDVQLQESGGGLVQAGGSLRLSCAASGATFSSYYIGWFRQAPGKEREFVAAINGSGGNRISADSVKGRFTISRDNAKNTVYLQLNSLKPEDTAVYYCAASLTYYGRSARYDYWGQGTQVTVSS
binds: [1] | [2] | [3]

B2: ID-1C (bispecific antibody)
chain: DVQLQESGGGLVQAGGSLRLSCAASGATSDVYAIGWFRQVPGKEREFVATINRSGSDSYYADSVKGRFTISRDNAKNTVYLQMNSLKPEETAVYYCAASRSDCIGYGCRRVSQDYWGQGTQVTVSSGGGGSGGGGSGGGGSGGGGSDVQLQESGGGLVQAGGSLRLSCVISGMDFSHKPAGWFRQAPGKEREFVASITTRASTHYADSVKGRFTISRDNAKNTVYLEMNSLKPEDTAVYYCNSEYYWGQGTQVTVSSGGGGSGGGGSGGGGSGGGGSDVQLQESGGGLVQAGDSLRLSCAASGATLSSYTIGWFRQAPEKEREFVAGSSRDGRTNYYANSVKGRFTISRDNAKNTVYLQMNSLKPEDTAVYYCAAHTTSGVPVRERSYAYWGQGTQVTVSSGGGGSGGGGSGGGGSGGGGSDVQLQESGGGLVQAGGSLRLSCAASGATFSSYYIGWFRQAPGKEREFVAAINGSGGNRISADSVKGRFTISRDNAKNTVYLQLNSLKPEDTAVYYCAASLTYYGRSARYDYWGQGTQVTVSS
notes: also called 1D-1C
binds: [4] | [1] | [3]
